Test results reported in doi:10.1101/559120.

Biological target: branched-chain amino acid aminotransferase from Pseudomonas sp. (Pseudomonas sp.)
Test: crystal structure

branched-chain amino acid aminotransferase from Pseudomonas sp. (enzyme)
stoichiometry N: 2
